# Assay results: article doi:10.1101/2024.11.05.622117 (bioRxiv, 2024)
# B1: Peptide IRIDIRIDIRG (SID) (peptide)
# peptide: IRIDIRIDIRG
# Molecular target: the molecule itself
protein,measurement,value
B1,binding result,binds
